From article PMC5417323 (Journal of Molecular Biology, 2017)
Non-standard residues stand in square brackets, D forms with d. Primed or numbered codes have the meaning given here. No end group written: not given here. *: point of attachment. FITC = O=C1OC2(c3ccc(O)cc3Oc3cc(O)ccc32)c2ccc(NC(=S)*)cc21; pY = N[C@@H](Cc1ccc(OP(=O)(O)O)cc1)C(=O)O; FITC′ = not defined here

Legend:
[1] = target: Lck SH2 domain (UniProt P06239 118-231, biotin on the Avi-tag (yeast binding assay, pull-down)); assay: fluorescence polarisation
Sequence of Lck SH2 domain (P06239 118-231): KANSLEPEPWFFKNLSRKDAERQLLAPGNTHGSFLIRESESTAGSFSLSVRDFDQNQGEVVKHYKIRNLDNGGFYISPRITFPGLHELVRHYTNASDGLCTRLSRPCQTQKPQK

[2] = target: the eight SFK SH2 domains; assay: fluorescence polarisation

Kd [1] [nM]	Kd [2] [nM]	Binder
2200		{FITC}-TEGQ[pY]QPQPA [(FITC)-TEGQpYQPQPA]
955		{FITC}-ADND[pY]IIPLPD [(FITC)-ADNDpYIIPLPD]
	310 to 675	EPQ[pY]EEIPIYLK-{FITC′} [EPQp…-(FITC)]
